No end group written: not given here.
Molecular target: T1, human GLP-1 receptor (Homo sapiens, UniProt P43220)
T1 construct: expressed in transfected cells; host or cells: HEK-293 Aurora CRE-BLAM cells
Test: In vitro potency, CRE-BLAM fluorescence assay
Assay type: cell-based
Settings: HEK-293 Aurora CRE-BLAM cells expressing the human GLP-1 receptor; 5 hours incubation; control Val^8-GLP-1(7-37)OH
Method: “In vitro potency” as used herein is the measure of the ability of a peptide to activate the GLP-1 receptor in a cell-based assay. In vitro potency is expressed as the “EC50” which is the effective concentration of compound that results in 50% activity in a single dose-response experiment. For the purposes of the present invention, in vitro potency is determined using a fluorescence assay that employs HEK-293 Aurora CRE-BLAM cells that stably express the human GLP-1 receptor. These HEK-293 cells have stably integrated a DNA vector having a cAMP response element (CRE) driving expression of the β-lactamase (BLAM) gene. The interaction of a GLP-1 agonist with the receptor initiates a signal that results in activation of the cAMP response element and subsequent expression of β-lactamase. The β-lactamase CCF2/AM substrate that emits fluorescence when it is cleaved by β-lactamase (Aurora Biosciences Corp.) can then be added to cells that have been exposed to a specific amount of GLP-1 agonist to provide a measure of GLP-1 agonist potency. […]
HEK-293 Aurora CRE-BLAM cells expressing the human GLP-1 receptor are seeded at 20,000 to 40,000 cells/well/100 μl into a 96 well black clear bottom plate. […] Generally, fourteen dilutions containing from […] to 30 nanomolar GLP-1 compound were used to generate a dose response curve from which EC50 values could be determined. […]

T1 sequence (P43220 24-463): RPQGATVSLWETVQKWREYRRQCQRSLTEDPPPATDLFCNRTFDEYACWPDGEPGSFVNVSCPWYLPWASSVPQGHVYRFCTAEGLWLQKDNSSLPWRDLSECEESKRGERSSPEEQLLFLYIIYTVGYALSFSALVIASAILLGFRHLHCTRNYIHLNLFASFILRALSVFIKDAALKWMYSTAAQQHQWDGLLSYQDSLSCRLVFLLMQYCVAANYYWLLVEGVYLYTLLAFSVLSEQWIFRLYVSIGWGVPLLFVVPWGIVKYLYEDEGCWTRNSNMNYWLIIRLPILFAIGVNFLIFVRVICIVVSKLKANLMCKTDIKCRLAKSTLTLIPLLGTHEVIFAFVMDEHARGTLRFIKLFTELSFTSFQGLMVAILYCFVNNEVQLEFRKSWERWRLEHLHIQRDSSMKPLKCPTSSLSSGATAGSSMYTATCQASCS

GLP-1 compound-HSA conjugate of Example 3: Human serum albumin conjugate of the lysine-modified GLP-1 compound SEQ ID NO:22 of Example 3 (HVEGTFTSDVSSYLEEQAAKEFIAWLIKGRGK(3‑(2-pyridyldithio)propanamide)-NH2; also: conjugated to human serum albumin)
EC50 values compared with Val^8-GLP-1(7-37)OH: about the same as the activity of Val^8-GLP-1(7-37)OH
